Series [1] addresses T1, TaGST-10 (Triticum aestivum, UniProt A0A3B5XZG4).
T1 sequence (A0A3B5XZG4 1-234): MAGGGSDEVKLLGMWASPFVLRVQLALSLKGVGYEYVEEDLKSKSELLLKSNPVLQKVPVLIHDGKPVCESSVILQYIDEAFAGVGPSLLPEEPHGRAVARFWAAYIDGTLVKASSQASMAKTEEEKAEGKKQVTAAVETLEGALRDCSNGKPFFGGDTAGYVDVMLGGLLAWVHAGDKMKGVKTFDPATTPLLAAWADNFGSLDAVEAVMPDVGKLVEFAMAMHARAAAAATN
Briefly: co-crystal structure, […] Å. It is filed as binding. Further details: gene LOC123049460; TaGST-10 after TEV removal of the N-His6-MBP tag; dimer in the asymmetric unit.

For series [2], the target named is T1, TaGST-10. In words: LC-MS/MS of DON-13-GSH formation, […] DON, apparent specific activity. Format: biochemical. Further details: gene LOC123049460; N-His6-SUMO-TaGST-10, IMAC and size-exclusion purified.
Substrate in series [3]: N[C@@H](CCC(=O)N[C@@H](CS)C(=O)NCC(=O)O)C(=O)O
Briefly: purified protein. Format: biochemical, Triticum aestivum. Conditions: G-site in the N-terminal domain; pH 6.5; 20.0 °C.

Substrate in series [4]: S=C=NCCc1ccccc1
In words: purified protein. It is filed as biochemical, Triticum aestivum. Conditions: GSH; pH 6.5; 20.0 °C.

Substrate in series [5]: C=C(CC)C(=O)c1ccc(OCC(=O)O)c(Cl)c1Cl
Briefly: purified protein. To be noted: GSH; pH 6.5; 20.0 °C.

In the case of `CC1=C[C@H]2O[C@@H]3[C@H](O)C[C@](C)([C@]24CO[C@@]1(O)[C@H]4O)[C@]3(O)CSC[C@H](NC(=O)CC[C@H](N)C(=O)O)C(=O)NCC(=O)O` (mixture of isomers) [DON-13-GSH], the “co-crystal structure, 2.3 Å” value on TaGST-10 [1] was “TaGST-10 crystallized as a dimer in the asymmetric unit and contained a molecule of DON-13-GSH in each active site”.
Take `CC1=C[C@H]2O[C@@H]3[C@H](O)C[C@](C)([C@@]2(CO)[C@H](O)C1=O)[C@]31CO1` [DON, deoxynivalenol]: the “LC-MS/MS of DON-13-GSH formation, 5 mM DON, apparent specific activity” value on TaGST-10 [2] is reported as 6.3 10^−5 ± 0.4 10^−5.

B1: TaGST-10 (Triticum aestivum) (protein)
chain: MAGGGSDEVKLLGMWASPFVLRVQLALSLKGVGYEYVEEDLKSKSELLLKSNPVLQKVPVLIHDGKPVCESSVILQYIDEAFAGVGPSLLPEEPHGRAVARFWAAYIDGTLVKASSQASMAKTEEEKAEGKKQVTAAVETLEGALRDCSNGKPFFGGDTAGYVDVMLGGLLAWVHAGDKMKGVKTFDPATTPLLAAWADNFGSLDAVEAVMPDVGKLVEFAMAMHARAAAAATN
notes: N-His6-MBP-TaGST-10 (full-length fusion)
The kcat is the number of substrate molecules converted per active site and unit of time at saturation. Broadly, the kcat/Km is the second-order rate constant that governs catalysis at low substrate concentration. Turning to B1, the K0.5 in the series “purified protein [3]” worked out at 0.46 ± 0.01 mM. Besides, in the series “purified protein [4]”, the K0.5 came to 0.041 ± 0.004 mM, the kcat was 2 s⁻¹ and the kcat/Km is 47000 M⁻¹ s⁻¹. In “purified protein [5]”, the K0.5 was determined as 0.023 ± 0.003 mM, the kcat was found to be 0.13 s⁻¹ and the kcat/Km came out at 5500 M⁻¹ s⁻¹.
